Assay results reported in US20260139001A1.

Target: SARS-CoV-2 Spike RBD, Wuhan (SARS-CoV-2) (UniProt P0DTC2)

Ribosomally constructed Wuhan-NS (VHH72 V104UAG construct translated with NBDxK-tRNACUA)
normalized tube fluorescence: 0.58
